This note sets out measurements from US20240368668A1, “SUBSTRATES AND BIOMARKERS OF ADAMTS7” (The Broad Institute, Inc., priority 2021, published 2024).

In the assay the target is T1, mouse ADAMTS7 (Mus musculus, UniProt Q68SA9).
T1 construct: Full-length mouse Adamts7 1-1857 (Uniprot Q68SA9, WT or E373Q catalytic mutant); expressed in transfected cells; host or cells: Human Coronary Artery Smooth Muscle Cells (HCA-SMC, Lonza), adenovirus 50 MOI
T1 sequence (Q68SA9 221-1657): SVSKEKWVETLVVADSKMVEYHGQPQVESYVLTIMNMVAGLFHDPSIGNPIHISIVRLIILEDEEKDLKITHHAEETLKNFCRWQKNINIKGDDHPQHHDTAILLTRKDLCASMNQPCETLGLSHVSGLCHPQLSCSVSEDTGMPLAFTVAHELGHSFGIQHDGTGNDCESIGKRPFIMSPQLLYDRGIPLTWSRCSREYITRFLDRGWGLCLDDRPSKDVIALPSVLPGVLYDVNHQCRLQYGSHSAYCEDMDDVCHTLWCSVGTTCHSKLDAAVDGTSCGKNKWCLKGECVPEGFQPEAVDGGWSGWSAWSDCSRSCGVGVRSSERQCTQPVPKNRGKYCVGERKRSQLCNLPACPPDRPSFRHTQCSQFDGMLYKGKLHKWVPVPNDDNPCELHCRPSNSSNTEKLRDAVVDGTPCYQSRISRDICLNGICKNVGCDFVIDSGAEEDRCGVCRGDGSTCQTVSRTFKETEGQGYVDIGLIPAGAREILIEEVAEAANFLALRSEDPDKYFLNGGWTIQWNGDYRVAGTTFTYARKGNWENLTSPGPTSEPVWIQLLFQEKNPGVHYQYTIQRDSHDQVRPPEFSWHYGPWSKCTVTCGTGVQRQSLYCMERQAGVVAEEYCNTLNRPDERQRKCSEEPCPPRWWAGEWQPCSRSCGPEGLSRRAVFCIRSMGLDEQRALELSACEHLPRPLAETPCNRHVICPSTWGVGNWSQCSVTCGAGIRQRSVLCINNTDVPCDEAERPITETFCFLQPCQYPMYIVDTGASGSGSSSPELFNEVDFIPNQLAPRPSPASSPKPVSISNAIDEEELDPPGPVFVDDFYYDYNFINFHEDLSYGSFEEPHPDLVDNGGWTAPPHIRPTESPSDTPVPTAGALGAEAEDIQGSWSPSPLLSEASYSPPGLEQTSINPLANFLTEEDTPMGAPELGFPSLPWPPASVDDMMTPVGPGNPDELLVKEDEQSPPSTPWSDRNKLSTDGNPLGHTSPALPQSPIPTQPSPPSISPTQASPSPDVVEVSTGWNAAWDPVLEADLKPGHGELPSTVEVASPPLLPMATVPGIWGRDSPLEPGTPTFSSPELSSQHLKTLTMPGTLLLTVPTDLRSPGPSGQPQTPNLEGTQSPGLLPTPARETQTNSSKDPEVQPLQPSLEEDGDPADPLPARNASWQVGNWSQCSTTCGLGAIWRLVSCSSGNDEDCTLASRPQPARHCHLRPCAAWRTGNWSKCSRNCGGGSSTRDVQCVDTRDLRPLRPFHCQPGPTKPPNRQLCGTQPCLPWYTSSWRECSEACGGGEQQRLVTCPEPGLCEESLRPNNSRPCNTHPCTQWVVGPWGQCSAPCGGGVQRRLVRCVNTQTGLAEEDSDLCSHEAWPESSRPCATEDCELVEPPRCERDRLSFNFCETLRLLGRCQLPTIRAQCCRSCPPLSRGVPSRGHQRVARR
The assay can be described thus: TMT10 TAILS N-terminomics, HUVEC experiment (process replicates, trypsin/AspN digest). It is filed as cell-based, human. The following applies: HUVEC TAILS HC; log fold change of N-terminal peptide, Ad-mADAMTS7 WT over Luc. An outline of the steps: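 Full-length mouse ADAMTS7 (WT or E373Q mutant, C-terminal 3xFLAG) or luciferase was transduced via adenovirus, 50 MOI, into HCA-SMC (SMC1, SMC2) or HUVEC. SMC1: pooled media, technical triplicates 400 ug; SMC2: process triplicates 300 ug; HUVEC: process triplicates 200 ug, bFGF2 10 ng/ml.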
For “COL18A1_1505 (LQPPVVQLHDSNPYPR; listed as Homo sapiens)”, the logFC.mWT.over.Luc amounted to 3.05.
The figure for “LTBP2_79 (VAGLQPVER; listed as Homo sapiens)” is 1.13; for “LTBP2_250 (SAAGEGTLAR; listed as Homo sapiens)” it is 1.84.
Substance “LTBP2_502 (LVENSVETRPPPWLPASPGHSLW; listed as Homo sapiens)” yielded a logFC.mWT.over.Luc of 2.47.
The figure for “LTBP3_208 (FLVPLGPGQISA; listed as Homo sapiens)” is 1.54.
Turning to “MAP4_815 (AVASTGPSSR; listed as Homo sapiens)”, the logFC.mWT.over.Luc is reported as 2.87.
The figure for “MAP4_816 (VASTGPSSR; listed as Homo sapiens)” is 2.13.
The figure for “NID1_360 (FHQQHPQVI; listed as Homo sapiens)” is 1.48.
To “NID2_291 (HSSVPLGR; listed as Homo sapiens)” belongs 2.80.
Substance “NUCB1_317 (FLASTQR; listed as Homo sapiens)” displayed a logFC.mWT.over.Luc of 2.71.
To “NUCB1_389 (LQQAVLHMEQR; listed as Homo sapiens)” belongs 1.32; to “SERBP1_56 (QAAAQTNSNAAGKQLR; listed as Homo sapiens)”, 1.23; to “SPOCK1_27 (LAGGAGPNHGNFL; listed as Homo sapiens)”, 0.90.
To “SRGN_59 (LLPGESNKIPR; listed as Homo sapiens)” belongs 1.04; to “THBS2_290 (LSENLKR; listed as Homo sapiens)”, 5.05.
